Test results: publication PMC10117073

Columns and labels:
[1] = biological target: mature Geh (mGeh) (S. aureus); test: SEC; analytical gel filtration column (HiLoad 13/300 Super 200); molecular weight estimated from a standard curve (thyroglobulin, ferritin, aldolase, conalbumin, ovalbumin, RNase A, aprotinin)
[2] = biological target: proGeh (glycerol ester hydrolase, pro form) (S. aureus); test: as above

| Substance | stoichiometry N [1] | stoichiometry N [2] |
| --- | --- | --- |
| mature Geh (mGeh) (enzyme) | 2 | – |
| proGeh (glycerol ester hydrolase, pro form) (from UniProt A0A1R3UHM3 38-645) (enzyme) | – | 2 |
